According to the supplement of paper PMC9876800:

System: peptide library, one residue held at a place counted from the S/T acceptor
Test: relative phosphorylation of the sub-library (ratio to the mean residue at this position); higher = residue favoured
Conditions: human
In short: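 Purified recombinant kinases, either human or orthologue constructs, were incubated in 384-well plates with biotinylated degenerate peptide sub-libraries. Each sub-library fixed one residue at one position around a central Ser/Thr. Peptides at 50 μM and 50 μM ATP spiked with γ-32P-ATP were used for 90 min under kinase-specific conditions, and spots on streptavidin membranes were phosphorimaged and quantified by densitometry. Relative sub-library phosphorylation is expressed as a ratio to the mean residue at that position.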

Sequence of MYLK3, construct: aa490-end (Q32MK0 490-819, looked up): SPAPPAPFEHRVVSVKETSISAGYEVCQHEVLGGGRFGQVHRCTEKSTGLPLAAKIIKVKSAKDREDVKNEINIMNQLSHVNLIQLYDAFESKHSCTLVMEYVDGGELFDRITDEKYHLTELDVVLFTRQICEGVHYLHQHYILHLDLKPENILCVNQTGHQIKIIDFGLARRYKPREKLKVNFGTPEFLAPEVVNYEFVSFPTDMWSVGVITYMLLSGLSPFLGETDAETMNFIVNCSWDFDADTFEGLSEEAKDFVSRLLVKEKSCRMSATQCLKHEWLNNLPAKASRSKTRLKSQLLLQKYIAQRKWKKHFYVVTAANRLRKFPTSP
Sequence of GSK3A, construct: Full length (P49840 whole entry, looked up): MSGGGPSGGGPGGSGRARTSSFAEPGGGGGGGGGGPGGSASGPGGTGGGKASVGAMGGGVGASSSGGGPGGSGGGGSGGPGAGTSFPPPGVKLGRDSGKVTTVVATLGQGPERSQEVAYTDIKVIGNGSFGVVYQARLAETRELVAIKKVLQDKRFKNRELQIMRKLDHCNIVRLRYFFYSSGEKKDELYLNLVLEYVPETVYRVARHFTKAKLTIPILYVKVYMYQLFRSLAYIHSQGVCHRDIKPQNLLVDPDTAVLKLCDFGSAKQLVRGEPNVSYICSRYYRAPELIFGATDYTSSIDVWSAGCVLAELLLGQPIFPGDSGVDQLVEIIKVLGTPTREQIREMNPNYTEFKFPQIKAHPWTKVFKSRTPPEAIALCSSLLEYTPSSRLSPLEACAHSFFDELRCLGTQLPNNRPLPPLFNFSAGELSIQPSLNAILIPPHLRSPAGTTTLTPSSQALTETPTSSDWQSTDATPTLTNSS

MTOR, construct: aa1362-end (from UniProt P42345)
relative phosphorylation
Conditions	at +1	at +2	at +3	at +4	at -1	at -2	at -3	at -4	at -5
A fixed	0.644	0.815	1.08	0.948	0.839	1.52	0.751	0.924	0.888
D fixed	0.338	1.2	1.11	0.821	0.489	0.686	0.747	1.1	1.21
E fixed	0.342	0.889	1.07	0.829	0.709	0.643	0.983	1.09	1.04
F fixed	1.72	0.686	0.647	1.01	1.01	1.09	1.09	1.08	1
G fixed	0.613	0.903	1.43	1.21	2.83	1.58	1.01	0.942	1.07
H fixed	0.556	1.24	1.17	1.28	1.18	1.05	1.14	1.21	1.15
I fixed	0.707	0.686	0.601	0.706	0.433	0.88	0.778	0.747	0.593
K fixed	0.487	1.58	1.35	1.36	0.986	0.854	0.924	0.879	1.1
L fixed	1.43	1.16	0.756	0.695	0.698	0.682	0.938	0.956	0.724
M fixed	1.02	0.673	0.694	0.868	1.13	0.705	1.05	1.07	0.807
N fixed	0.452	1.12	1.33	0.968	1.36	0.954	0.986	0.939	0.923
P fixed	2.13	1.31	0.993	0.872	0.786	1.56	1.09	0.955	1.47
Q fixed	0.561	0.83	0.942	0.92	1.15	0.838	0.949	0.953	0.862
R fixed	0.506	1.7	1.2	1.2	1.15	0.973	1.1	1.02	1.04
V fixed	0.816	0.728	0.675	0.7	0.482	0.985	0.795	0.708	0.745
W fixed	1.99	0.643	0.99	1.41	0.721	1.05	1.2	1.3	1.36
Y fixed	2.68	0.836	0.972	1.2	1.05	0.956	1.47	1.13	1.01
pThr fixed	0.637	1.71	1.67	1.27	0.546	1.01	1.15	1.34	1.16
pTyr fixed	1.06	0.721	1	0.941	0.841	1.27	1.66	1.37	1.21

GSK3A, construct: Full length (from UniProt P49840)
relative phosphorylation
Conditions	at +1	at +2	at +3	at +4	at -1	at -2	at -3	at -4	at -5
A fixed	0.877	0.899	0.742	0.852	1.1	1.42	1.14	1.28	1.14
D fixed	0.815	1.25	1.32	1.25	1.15	1.14	1.36	1.39	1.36
E fixed	0.758	0.904	2.08	3.03	1.09	0.906	1.26	1.4	1.05
F fixed	0.673	0.931	0.889	0.752	0.598	0.686	0.525	0.686	0.903
G fixed	1.19	0.957	1.02	0.825	1.47	1.38	2.61	1.43	0.995
H fixed	0.771	1.04	0.935	0.772	0.927	0.741	0.668	0.915	0.983
I fixed	0.564	0.621	0.679	0.788	0.506	0.719	0.507	0.661	0.727
K fixed	1.18	1.33	0.933	1.14	1.3	1.02	0.824	1.06	1.16
L fixed	0.552	0.772	0.803	0.862	0.61	0.638	0.536	0.715	0.811
M fixed	0.607	0.883	0.812	0.864	0.691	0.662	0.604	0.747	0.739
N fixed	1.05	1.38	1	0.922	1.28	1.25	1.21	1.13	0.974
P fixed	3.8	0.825	0.899	0.728	1.5	2.02	1.65	1.42	1.31
Q fixed	0.858	1.35	1.2	1.03	1.35	1	1.09	0.894	0.887
R fixed	1.15	1.03	1.01	0.82	1.31	1.26	1.21	0.951	1.01
V fixed	0.634	0.703	0.718	0.695	0.616	0.777	0.605	0.721	0.963
W fixed	0.793	1.15	1.07	0.766	0.724	0.728	0.592	0.828	1.1
Y fixed	0.725	0.979	0.873	0.908	0.77	0.653	0.614	0.772	0.882
pThr fixed	0.876	0.928	3.67	62.8	0.866	1.11	1.06	1.82	1.07
pTyr fixed	1.15	1.09	2.41	3.12	1.52	1.34	1.37	1.45	1.69

MYLK3, construct: aa490-end (from UniProt Q32MK0)
relative phosphorylation
Conditions	at +1	at +2	at +3	at +4	at -1	at -2	at -3	at -4	at -5
A fixed	0.997	0.992	0.828	1	0.944	0.927	0.967	1.04	0.985
D fixed	0.753	0.819	0.786	0.983	0.851	0.585	0.67	0.758	0.72
E fixed	0.833	0.958	0.758	1.01	0.799	0.585	0.667	0.836	0.722
F fixed	0.951	1.06	1.43	1.02	0.964	0.641	0.71	0.904	0.919
G fixed	0.937	0.89	0.861	1.04	0.913	0.788	0.879	1.01	0.982
H fixed	0.922	0.995	0.943	1.07	1.03	1.09	0.884	0.976	0.987
I fixed	1.1	1.19	0.997	1.03	0.971	0.656	0.748	0.936	1.09
K fixed	1.25	0.972	0.81	0.941	1.09	1.44	1.41	1.42	1.29
L fixed	0.938	1	1.2	1.04	1.24	0.653	0.711	0.918	0.983
M fixed	1.18	1.02	0.953	0.932	1.2	0.711	0.756	0.991	1.04
N fixed	0.961	0.863	0.839	0.93	1.07	0.737	0.717	0.867	0.813
P fixed	0.786	0.899	0.876	1.18	0.956	0.778	0.933	1.01	1.11
Q fixed	1.1	0.887	0.786	0.937	0.949	0.762	0.77	0.902	0.85
R fixed	1.43	1.07	0.821	1	1.17	4.7	3.93	1.62	1.68
V fixed	1.12	1.19	0.889	0.943	0.972	0.668	0.773	1.01	1.01
W fixed	0.839	0.997	2.22	1.05	0.862	0.63	0.735	0.858	0.813
Y fixed	0.908	1.19	1	0.902	1.02	0.647	0.729	0.938	1
pThr fixed	1.12	1.06	0.774	1.08	0.769	0.637	0.724	0.809	0.728
pTyr fixed	0.83	1.06	0.883	1.02	0.882	0.644	0.994	0.844	0.798
